Patent publication US11028172 (LEPU BIOPHARMA, dated 2021)

Key:
human TIGIT-His protein [1] = target: T1, human TIGIT-His protein (human, UniProt Q495A1 22-141); assay: ELISA, plate coated with human TIGIT-His, anti-human IgG-HRP, OD 450nm; unit taken from the axis Log[Conc.]/ng/ml
T1 construct: Recombinant protein; also called human TIGIT-his tag; hTIGIT-His
T1 sequence (looked up): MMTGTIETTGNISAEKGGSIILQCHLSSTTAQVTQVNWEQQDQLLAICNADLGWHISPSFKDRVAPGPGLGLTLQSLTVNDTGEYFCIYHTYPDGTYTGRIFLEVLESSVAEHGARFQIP
Protocol: To evaluate the antigen binding activity, the humanized antibodies were subjected to ELISA test. Briefly, microtiter plates were coated with human TIGIT-his protein at 0.5 µg/ml in PBS, 100 µl/well at 4° C. overnight, then blocked with 150 µl/well of 1% BSA. Three-fold dilutions of humanized antibodies starting from 3 µg/ml were added to each well and incubated for 1 hour at 37° C. The plates were washed with PBS/Tween and then incubated with Goat-anti-human IgG antibody conjugated with Horse Radish Peroxidase (HRP) for 30 mins at 37° C. After washing, the plates were developed with TMB substrate and analyzed by spectrophotometer at OD 450 nm.

human TIGIT-His protein [2] = target: T1, human TIGIT-His protein; assay: SPR (Biacore) affinity ranking, human TIGIT-His

EC50 (human TIGIT-His protein [1]) [ng/mL]	Kd (human TIGIT-His protein [2]) [nM]	koff (human TIGIT-His protein [2]) [s⁻¹]	kon (human TIGIT-His protein [2]) [M⁻¹ s⁻¹]	Binder
9.54	0.0192	9.73e-05	5.06e+06	76D12B10-Hu08 (antibody, V domains shown, Humanized, VH.V3 + VK.V1) VH: EVQLQESGPGLVKPSETLSLTCAVSGYSISSGYDWHWIRQPPGKGLEWMGFIRDSGSTVYNPSLKGRITISHDTSKNQFSLKLSSVTAADTAVYYCARGLFWYFDVWGQGTTVTVSS VL: DIQMTQSPSSLSASVGDRVTITCRTSENIFSYLAWYQQKPGKVPKLLIHNTKTLAEGVPSRFSGSGSGTDFTLTISSLQPEDVATYYCQHHYGNPLTFGQGTKLEIK
4.95	0.0139	0.000125	9.01e+06	76D12B10-Hu09 (antibody, V domains shown, Humanized, VH.V4 + VK.V1) VH: EVQLQESGPGLVKPSETLSLTCAASGYSITSGYDWHWIRQPPGKGLEWMGFIRDSGSTVYNPSLKGRITISHDTSKNQFSLKLSSVTAADTAVYYCARGLFWYFDVWGQGTTVTVSS VL: DIQMTQSPSSLSASVGDRVTITCRTSENIFSYLAWYQQKPGKVPKLLIHNTKTLAEGVPSRFSGSGSGTDFTLTISSLQPEDVATYYCQHHYGNPLTFGQGTKLEIK
4.01	0.0266	9.79e-05	3.68e+06	76D12B10-Hu10 (antibody, V domains shown, Humanized, VH.V5 + VK.V1) VH: EVQLQESGPGLVKPSETLSLTCAASGYSITSGYDWHWIRQPPGKKLEWMGFIRDSGSTVYNPSLKGRITISHDTSKNQFSLKLSSVTAADTAVYFCARGLFWYFDVWGQGTTVTVSS VL: DIQMTQSPSSLSASVGDRVTITCRTSENIFSYLAWYQQKPGKVPKLLIHNTKTLAEGVPSRFSGSGSGTDFTLTISSLQPEDVATYYCQHHYGNPLTFGQGTKLEIK
10.7	0.0186	8.93e-05	4.8e+06	76D12B10-Hu07 (antibody, V domains shown, Humanized, VH.V2 + VK.V1) VH: EVQLQESGPGLVKPSETLSLTCAVSGYSISSGYDWHWIRQPPGKGLEWIGFIRDSGSTVYNPSLKGRITISHDTSKNQFSLKLSSVTAADTAVYYCARGLFWYFDVWGQGTTVTVSS VL: DIQMTQSPSSLSASVGDRVTITCRTSENIFSYLAWYQQKPGKVPKLLIHNTKTLAEGVPSRFSGSGSGTDFTLTISSLQPEDVATYYCQHHYGNPLTFGQGTKLEIK
9.68	0.0135	0.000105	7.76e+06	76D12B10-Hu15 (antibody, V domains shown, Humanized, VH.V5 + VK.V2) VH: EVQLQESGPGLVKPSETLSLTCAASGYSITSGYDWHWIRQPPGKKLEWMGFIRDSGSTVYNPSLKGRITISHDTSKNQFSLKLSSVTAADTAVYFCARGLFWYFDVWGQGTTVTVSS VL: DIQMTQSPSSLSASVGDRVTITCRTSENIFSYLAWYQQKPGKVPKLLVHNTKTLAEGVPSRFSGSGSGTDFTLTISSLQPEDVATYYCQHHYGNPLTFGQGTKLEIK
12.1	0.0281	0.000128	4.54e+06	76D12B10-Hu13 (antibody, V domains shown, Humanized, VH.V3 + VK.V2) VH: EVQLQESGPGLVKPSETLSLTCAVSGYSISSGYDWHWIRQPPGKGLEWMGFIRDSGSTVYNPSLKGRITISHDTSKNQFSLKLSSVTAADTAVYYCARGLFWYFDVWGQGTTVTVSS VL: DIQMTQSPSSLSASVGDRVTITCRTSENIFSYLAWYQQKPGKVPKLLVHNTKTLAEGVPSRFSGSGSGTDFTLTISSLQPEDVATYYCQHHYGNPLTFGQGTKLEIK
9.96	0.0191	9.85e-05	5.15e+06	76D12B10-Hu04 (antibody, V domains shown, Humanized, VH.V4 + VK.V0) VH: EVQLQESGPGLVKPSETLSLTCAASGYSITSGYDWHWIRQPPGKGLEWMGFIRDSGSTVYNPSLKGRITISHDTSKNQFSLKLSSVTAADTAVYYCARGLFWYFDVWGQGTTVTVSS VL: DIQMTQSPSSLSASVGDRVTITCRTSENIFSYLAWYQQKPGKVPKLLIYNTKTLAEGVPSRFSGSGSGTDFTLTISSLQPEDVATYYCQHHYGNPLTFGQGTKLEIK
11.1	0.0244	0.00014	5.75e+06	76D12B10-Hu12 (antibody, V domains shown, Humanized, VH.V2 + VK.V2) VH: EVQLQESGPGLVKPSETLSLTCAVSGYSISSGYDWHWIRQPPGKGLEWIGFIRDSGSTVYNPSLKGRITISHDTSKNQFSLKLSSVTAADTAVYYCARGLFWYFDVWGQGTTVTVSS VL: DIQMTQSPSSLSASVGDRVTITCRTSENIFSYLAWYQQKPGKVPKLLVHNTKTLAEGVPSRFSGSGSGTDFTLTISSLQPEDVATYYCQHHYGNPLTFGQGTKLEIK
10.8	0.0196	9.97e-05	5.09e+06	76D12B10-Hu14 (antibody, V domains shown, Humanized, VH.V4 + VK.V2) VH: EVQLQESGPGLVKPSETLSLTCAASGYSITSGYDWHWIRQPPGKGLEWMGFIRDSGSTVYNPSLKGRITISHDTSKNQFSLKLSSVTAADTAVYYCARGLFWYFDVWGQGTTVTVSS VL: DIQMTQSPSSLSASVGDRVTITCRTSENIFSYLAWYQQKPGKVPKLLVHNTKTLAEGVPSRFSGSGSGTDFTLTISSLQPEDVATYYCQHHYGNPLTFGQGTKLEIK
10.6	0.0143	0.00015	1.05e+07	76D12B10-Hu03 (antibody, V domains shown, Humanized, VH.V3 + VK.V0) VH: EVQLQESGPGLVKPSETLSLTCAVSGYSISSGYDWHWIRQPPGKGLEWMGFIRDSGSTVYNPSLKGRITISHDTSKNQFSLKLSSVTAADTAVYYCARGLFWYFDVWGQGTTVTVSS VL: DIQMTQSPSSLSASVGDRVTITCRTSENIFSYLAWYQQKPGKVPKLLIYNTKTLAEGVPSRFSGSGSGTDFTLTISSLQPEDVATYYCQHHYGNPLTFGQGTKLEIK
10.1	0.0165	9.75e-05	5.92e+06	76D12B10-Hu05 (antibody, V domains shown, Humanized, VH.V5 + VK.V0) VH: EVQLQESGPGLVKPSETLSLTCAASGYSITSGYDWHWIRQPPGKKLEWMGFIRDSGSTVYNPSLKGRITISHDTSKNQFSLKLSSVTAADTAVYFCARGLFWYFDVWGQGTTVTVSS VL: DIQMTQSPSSLSASVGDRVTITCRTSENIFSYLAWYQQKPGKVPKLLIYNTKTLAEGVPSRFSGSGSGTDFTLTISSLQPEDVATYYCQHHYGNPLTFGQGTKLEIK
9.89	0.0701	0.000104	1.48e+06	76D12B10-Hu01 (antibody, V domains shown, Humanized, VH.V1 + VK.V0) VH: EVQLQESGPGLVKPSETLSLTCAVSGYSISSGYDWHWIRQPPGKGLEWIGFIRDSGSTVYNPSLKGRVTISHDTSKNQFSLKLSSVTAADTAVYYCARGLFWYFDVWGQGTTVTVSS VL: DIQMTQSPSSLSASVGDRVTITCRTSENIFSYLAWYQQKPGKVPKLLIYNTKTLAEGVPSRFSGSGSGTDFTLTISSLQPEDVATYYCQHHYGNPLTFGQGTKLEIK
7.09	0.0255	9.21e-05	3.62e+06	76D12B10-Hu11 (antibody, V domains shown, Humanized, VH.V1 + VK.V2) VH: EVQLQESGPGLVKPSETLSLTCAVSGYSISSGYDWHWIRQPPGKGLEWIGFIRDSGSTVYNPSLKGRVTISHDTSKNQFSLKLSSVTAADTAVYYCARGLFWYFDVWGQGTTVTVSS VL: DIQMTQSPSSLSASVGDRVTITCRTSENIFSYLAWYQQKPGKVPKLLVHNTKTLAEGVPSRFSGSGSGTDFTLTISSLQPEDVATYYCQHHYGNPLTFGQGTKLEIK
